Results on six molecules are retold here after paper PMC8456996.

Where two headings read alike, the source gives them in different places.

Data set [1] has as its target FPR1 (FK506-binding protein 1) (Saccharomyces cerevisiae, UniProt P20081 1-114). As to the kind of experiment: NMR HSQC titration.
In data set [2] the target is T1, End binding protein 1 (dmEB1) (Drosophila melanogaster, UniProt Q0E9N1 1-291).
T1 sequence: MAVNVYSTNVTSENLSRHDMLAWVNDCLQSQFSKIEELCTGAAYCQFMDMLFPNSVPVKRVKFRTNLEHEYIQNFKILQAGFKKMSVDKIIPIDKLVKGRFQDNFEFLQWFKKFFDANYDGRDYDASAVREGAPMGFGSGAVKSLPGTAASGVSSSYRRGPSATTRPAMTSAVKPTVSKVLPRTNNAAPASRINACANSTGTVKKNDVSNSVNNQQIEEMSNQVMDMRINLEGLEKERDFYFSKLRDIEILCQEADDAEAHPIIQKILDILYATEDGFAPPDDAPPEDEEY
The data set is described as follows: EMSA.

For data set [3], the target named is T2, Thioredoxin (hsTXN) (Homo sapiens, UniProt P10599 1-105).
T2 sequence: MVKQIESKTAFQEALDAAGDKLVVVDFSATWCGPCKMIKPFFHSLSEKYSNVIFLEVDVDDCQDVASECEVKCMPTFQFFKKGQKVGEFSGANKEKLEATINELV
The data set is described as follows: NMR HSQC titration.

In data set [4] the target is T3, Syntrophin-beta-1 PDZ domain (Homo sapiens, UniProt Q13884 111-196).
T3 sequence: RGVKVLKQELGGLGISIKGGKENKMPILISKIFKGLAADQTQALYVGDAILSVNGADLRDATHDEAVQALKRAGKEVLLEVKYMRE
As to the kind of experiment: NMR HSQC titration.

Data set [5] deals with T2, Thioredoxin (hsTXN). As to the kind of experiment: NMR HSQC titration. The source holds these as a separate data set.
The target of data set [6] is T3, Syntrophin-beta-1 PDZ domain. As to the kind of experiment: NMR HSQC titration. The source holds these as a separate data set.
The target of the next data set is TRIM25 PRY/SPRY domain (UniProt Q14258 439-630). As to the kind of experiment: NMR HSQC titration.
TRIM25 PRY/SPRY domain, sequence (Q14258 439-630): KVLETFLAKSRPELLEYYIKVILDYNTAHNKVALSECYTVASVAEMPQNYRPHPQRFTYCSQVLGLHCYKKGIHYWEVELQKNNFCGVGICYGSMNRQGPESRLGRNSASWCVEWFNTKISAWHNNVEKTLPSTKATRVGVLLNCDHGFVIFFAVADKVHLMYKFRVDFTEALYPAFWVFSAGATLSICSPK

FPR1 (FK506-binding protein 1), sequence (P20081 whole entry): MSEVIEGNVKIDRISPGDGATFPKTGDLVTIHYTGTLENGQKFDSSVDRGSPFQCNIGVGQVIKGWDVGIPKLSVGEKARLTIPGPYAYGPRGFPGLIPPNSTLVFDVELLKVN

B1: poly(U) 9-mer (ssRNA)
RNA: UUUUUUUUU
As for B1, the binding result in data set [1] is given as “no binding”.

B2: poly(U) 25-mer, 32P probe (ssRNA)
RNA: UUUUUUUUUUUUUUUUUUUUUUUUU
As for B2, the binding result in data set [2] is given as “binds”.

B3: poly(A) 8-mer (ssRNA)
RNA: AAAAAAAA
Turning to B3, the binding result with Thioredoxin (hsTXN) [3] is “no binding”.

B4: poly(U) 8-mer (ssRNA)
RNA: UUUUUUUU
B4: the binding result (in data set [4]; with Thioredoxin (hsTXN) [5]) was “no binding” each time.

B5: poly(C) 8-mer (ssRNA)
RNA: CCCCCCCC
Regarding B5, the binding result (in data set [6]; with Thioredoxin (hsTXN) [3]) was “no binding” throughout.

B6: poly(U) 15-mer (ssRNA)
RNA: UUUUUUUUUUUUUUU
For B6, the binding result in the data set with TRIM25 PRY/SPRY domain is “binds”.
